Assay results published in patent publication US20240343802A1.
pKd: −log10 of the molar value.

Target: CD3 on CD3-expressing T cells (Jurkat, HPB-ALL) (UniProt P07766)
Assay: FACS, HBP-ALL T cells
Parameters: Bmax: unit not given here

How did the Bmax turn out when OKT3 (commercial anti-CD3 antibody) was run?
The Bmax was 13300.

What about the pKd of the same substance?
Its pKd is 9.34.
